Results from patent US20260193348A1 (ANTENGENE BIOLOGICS, published 2026).
Where a chain is given by its changes, count along the chain named. In names and notes the source's numbering stands.

B1: Bis-40E9-L2H3-D105R.H (bispecific antibody)
heavy 1: not shown
heavy 2: EVQLVQSGAEVKKPGASVKVSCKASGYTFTSYVIHWVRQAPGQGLEWMGYFNPYNDGTKYNEEFKGRVTLTSDKSTSTAYMELRSLRSDDTAVYYCARGGVRRYFDVWGQGTTVTVSSASTKGPSVFPLAPSSKSTSGGTAALGCLVKDYFPEPVTVSWNSGALTSGVHTFPAVLQSSGLYSLSSVVTVPSSSLGTQTYICNVNHKPSNTKVDKKVEPKSCGGGGSGGGGSEVQLVQSGAEVKKPGSSVKVSCKASGYTFSSYVIHWVRQAPGQCLEWMGYINPYNDVIKYNEKFKGRVTLTSDKSTSTAYMELSSLRSEDTAVYYCARDSYYSYRGFAYWGQGTLVTVSSGGGGSGGGGSGGGGSGGGGSEIVLTQSPDFQSVTPKEKVTITCSASSSVSYMHWYQQKPDQSPKRLIYDTSKLASGVPSRFSGSGSGTDFTLTINSLEAEDAATYYCQQWSSNPPTFGCGTKVEIKGGGGSGGGGSDKTHTCPPCPAPEAAGGPSVFLFPPKPKDTLMISRTPEVTCVVVDVSHEDPEVKFNWYVDGVEVHNAKTKPREEQYNSTYRVVSVLTVLHQDWLNGKEYKCKVSNKALPAPIEKTISKAKGQPREPQVCTLPPSREEMTKNQVSLSCAVKGFYPSDIAVEWESNGQPENNYKTTPPVLDSDGSFFLVSKLTVDKSRWQQGNVFSCSVMHEALHNHYTQKSLSLSPGK
light: DIQMTQSPSSLSASVGDRVTITCRASQDIGSNLNWLQQKPGKAIKRLIYATFGLDSGVPSRFSGSRSGTDFTLTISSLQPEDFATYYCQQYASFPYTFGGGTKVEIKRTVAAPSVFIFPPSDEQLKSGTASVVCLLNNFYPREAKVQWKVDNALQSGNSQESVTEQDSKDSTYSLSSTLTLSKADYEKHKVYACEVTHQGLSSPVTKSFNRGEC
notes: Fab-scFv-Fab (2+1), LALA
B2: Bis-40E9-L2H3-Y101F.H (bispecific antibody)
heavy 1: not shown
heavy 2: B1 heavy 2 with Y332F, R336D
light: B1 light
notes: Fab-scFv-Fab (2+1), LALA
B3: JNJ-64407564 (bispecific antibody, V domains shown)
VH 1: QVQLVQSGAEVKKPGASVKVSCKASGYSFTGYTMNWVRQAPGQGLEWMGLINPYNSDTNYAQKLQGRVTMTTDTSTSTAYMELRSLRSDDTAVYYCARVALRVALDYWGQGTLVTVSS
VL 1: DIQMTQSPSSLSASVGDRVTITCKASQNVATHVGWYQQKPGKAPKRLIYSASYRYSGVPSRFSGSGSGTEFTLTISNLQPEDFATYYCQQYNRYPYTFGQGTKLEIK
VH 2: EVQLVESGGGLVQPGGSLRLSCAASGFTFNTYAMNWVRQAPGKGLEWVARIRSKYNNYATYYAASVKGRFTISRDDSKNSLYLQMNSLKTEDTAVYYCARHGNFGNSYVSWFAYWGQGTLVTVSS
VL 2: QTVVTQEPSLTVSPGGTVTLTCRSSTGAVTTSNYANWVQQKPGQAPRGLIGGTNKRAPGTPARFSGSLLGGKAALTLSGVQPEDEAEYYCALWYSNLWVFGGGTKLTVL
notes: construct per WO2018017786A2; also called benchmark antibody
B4: Bis-40E9-L2H3-Y54G.H (bispecific antibody)
heavy: EVQLVQSGAEVKKPGASVKVSCKASGYTFTSYVIHWVRQAPGQGLEWMGYFNPYNDGTKYNEEFKGRVTLTSDKSTSTAYMELRSLRSDDTAVYYCARGGVRRYFDVWGQGTTVTVSS
heavy (part 1 of 2): B4 heavy
heavy (part 2 of 2): GGGGSGGGGSEVQLVQSGAEVKKPGSSVKVSCKASGYTFSSYVIHWVRQAPGQCLEWMGYINPGNDVIKYNEKFKGRVTLTSDKSTSTAYMELSSLRSEDTAVYYCARDSYYSYDGFAYWGQGTLVTVSSGGGGSGGGGSGGGGSGGGGSEIVLTQSPDFQSVTPKEKVTITCSASSSVSYMHWYQQKPDQSPKRLIYDTSKLASGVPSRFSGSGSGTDFTLTINSLEAEDAATYYCQQWSSNPPTFGCGTKVEIKGGGGSGGGGS
light: DIQMTQSPSSLSASVGDRVTITCRASQDIGSNLNWLQQKPGKAIKRLIYATFGLDSGVPSRFSGSRSGTDFTLTISSLQPEDFATYYCQQYASFPYTFGGGTKVEIK
notes: Fab-scFv-Fab (2+1), LALA; not shown: CH1; CL; CH2-CH3 with L234A, L235A; heavy chain constant region with L234A, L235A
B5: Bis-40E9-L3H1 (bispecific antibody)
heavy: B4 heavy
heavy (part 1 of 2): B4 heavy
heavy (part 2 of 2): B4 heavy (part 2 of 2) with Y37G, G64Y, L80I, S82A, L196W, F220Y
light: B4 light
notes: as for B4

Legend:
[1] = molecular target: T1, GPRC5D (G-protein coupled receptor family C group 5 member D), human, on multiple myeloma cell lines (human, UniProt Q9NZD1 1-345); test: FACS, MM.1S cells
T1 construct: whole, on cells; Target as carried by MM.1S, MOLP-8, L363 and RPMI8226 cells
T1 sequence (Q9NZD1 whole entry): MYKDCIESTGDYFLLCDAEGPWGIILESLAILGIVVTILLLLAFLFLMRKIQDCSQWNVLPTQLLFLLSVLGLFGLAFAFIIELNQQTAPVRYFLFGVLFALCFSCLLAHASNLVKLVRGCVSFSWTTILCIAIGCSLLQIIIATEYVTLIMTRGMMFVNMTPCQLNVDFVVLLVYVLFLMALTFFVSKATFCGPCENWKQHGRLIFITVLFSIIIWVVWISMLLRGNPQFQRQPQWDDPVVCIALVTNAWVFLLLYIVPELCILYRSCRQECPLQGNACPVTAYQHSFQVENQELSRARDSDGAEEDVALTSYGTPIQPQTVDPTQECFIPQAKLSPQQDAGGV
Description: (§1) The binding affinities of the generated humanized Fab-scFv-Fab bispecific antibodies were determined by FACS analysis. […] (a) Jurkat cells were washed by Staining Buffer (PBS+1% BSA) in round bottom 96-well plate. [0833] (b) Antibody dilutions and cells were added to each well, incubated at 4 degrees for 1 hour. [0834] (c) Cells were spined down at 300 g for 3 minutes, and the supernatants were discarded. [0835] (d) Cells were washed with Staining Buffer. […] (e) Step (d) was repeated and the cells were incubated for 0.5 hours at 4 degrees with secondary antibody in Staining Buffer. [0837] (f) After incubation, step (d)-(e) were repeated. […] (g) Staining Buffer was added and fluorescence signals were recorded by flow cytometry.
(§2) The binding affinities of the generated humanized Fab-scFv-Fab bispecific antibodies to different multiple myeloma cell lines were evaluated by FACS analysis. The protocol for FACS analysis is identical to that described in Example 3.2, except that different cells were used in this example, i.e., multiple myeloma cell lines (MM.1S, […], L363 and RPMI 8226) were used in this example.

[2] = molecular target: T1, GPRC5D (G-protein coupled receptor …); test: FACS, MOLP-8 cells
Description: as §1, §2

[3] = molecular target: T1, GPRC5D (G-protein coupled receptor …); test: cell-based or functional assay
[4] = molecular target: T1, GPRC5D (G-protein coupled receptor …); test: cell-based or functional assay; remark: listed apart in the source
[5] = molecular target: T2, CD3 (Cluster of Differentiation 3 protein), human, on T cells / Jurkat cells (human, UniProt P07766 23-207; P04234 22-171; P09693 23-182); test: FACS, Jurkat cells, antibody at 50 µg/ml
T2 construct: whole, on cells; part of the TCR-CD3 complex; also called human CD3
T2 sequence (P07766 23-207, chain 1 of 3): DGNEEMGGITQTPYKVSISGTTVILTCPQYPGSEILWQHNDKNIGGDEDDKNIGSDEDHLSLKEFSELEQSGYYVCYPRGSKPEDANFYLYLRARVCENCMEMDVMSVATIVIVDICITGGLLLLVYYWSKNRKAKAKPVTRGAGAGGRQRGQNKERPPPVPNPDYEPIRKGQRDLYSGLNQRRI
T2 sequence (P04234 22-171, chain 2 of 3): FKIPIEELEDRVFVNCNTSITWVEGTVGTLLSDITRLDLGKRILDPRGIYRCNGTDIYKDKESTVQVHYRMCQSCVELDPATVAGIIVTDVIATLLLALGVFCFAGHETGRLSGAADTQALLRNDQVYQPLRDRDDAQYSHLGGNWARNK
T2 sequence (P09693 23-182, chain 3 of 3): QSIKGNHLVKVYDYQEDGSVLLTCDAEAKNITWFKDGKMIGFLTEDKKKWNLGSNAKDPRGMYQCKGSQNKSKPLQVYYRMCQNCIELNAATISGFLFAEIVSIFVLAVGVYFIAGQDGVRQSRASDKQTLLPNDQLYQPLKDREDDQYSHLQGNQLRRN
Description: as §1

[6] = molecular target: T2, CD3 (Cluster of Differentiation 3 …); test: FACS, CD3+ T cells isolated from normal donors
Description: To evaluate the binding affinity of the generated chimeric bispecific antibody to T cells, the isolated CD3⁺ T cells were stained by antibodies and the binding affinity was determined by FACS analysis. The protocol of FACS analysis is described as follows: [0785] (a) CD3⁺ T cells were isolated from normal donors. [0786] (b) The isolated CD3⁺ T cells were washed by Staining Buffer (PBS+1% BSA) in round bottom 96-well plate. […] (c) Antibody dilutions were added to each well and mixed with the CD3+ T cells, incubated at 4 degrees for 1 hour. […] (d) Cells were spined at 300 g for 3 minutes, then the supernatants were discarded. [0789] (e) Cells were washed with Staining Buffer. [0790] (f) Step (d) was repeated, and the cells were incubated with secondary antibody in Staining Buffer for 0.5 hours at 4 degrees. [0791] (g) After incubation, step (d)-(e) were repeated. [0792] (h) Cells were resuspended in Staining Buffer and fluorescence signals were recorded by flow cytometry.

Binder	EC50 [1]	Top (MFI) [1]	EC50 [2]	Top (MFI) [2]	IC50 (nM), T-Cell Dependent Cytotoxicity, MM.1S [3]	IC50 (nM), T-Cell Dependent Cytotoxicity, MOLP-8 [3]	IC50 (nM), T-Cell Dependent Cytotoxicity, RPMI8226 [3]	Top (%), T-Cell Dependent Cytotoxicity, MM.1S [3]	Top (%), T-Cell Dependent Cytotoxicity, MOLP-8 [3]	Top (%), T-Cell Dependent Cytotoxicity, RPMI8226 [3]	EC50 (nM), luciferase assay, L363 [4]	EC50 (nM), luciferase assay, MM.1S [4]	EC50 (nM), luciferase assay, MOLP-8 [4]	Top (RLU), luciferase assay, L363 [4]	Top (RLU), luciferase assay, MM.1S [4]	Top (RLU), luciferase assay, MOLP-8 [4]	MFI (50 µg/ml) [5]	EC50 [6]	Top (MFI) [6]
B1	6.16 nM	1070 MFI	0.21 nM	1090 MFI	0.00579 nM	0.00463 nM	0.0366 nM	75.7%	70.1%	12.4%	0.0397 nM	0.423 nM	0.0423 nM	942 RLU	5240 RLU	1080 RLU	247 MFI	–	–
B2	10.1 nM	1150 MFI	0.466 nM	876 MFI	0.00723 nM	0.00499 nM	0.0226 nM	62.8%	77.1%	12.2%	0.155 nM	0.0398 nM	–	1600 RLU	5630 RLU	1470 RLU	207 MFI	–	–
B3	–	–	–	–	–	–	–	–	–	–	–	–	–	–	–	–	1030 MFI	11.4 nM	534 MFI
B4	8.93 nM	1330 MFI	0.398 nM	952 MFI	0.00726 nM	0.00117 nM	0.0453 nM	75.5%	68.7%	10.4%	0.0525 nM	0.0506 nM	0.0455 nM	776 RLU	5840 RLU	1060 RLU	137 MFI	–	–
B5	–	–	–	–	0.0203 nM	0.00244 nM	0.292 nM	74.9%	68.3%	13.6%	1.71 nM	0.0332 nM	0.072 nM	2760 RLU	1710 RLU	150 RLU	142 MFI	–	–
